The target of test [1] is T1, Human CD93 on cells (human CD93 expressing CHO cells; HUVEC, U937 and KG1a cells) (human, UniProt Q9NPY3 22-652).
T1 construct: whole, on cells; also called hCD93 expressing CHO cells; hCD93 CHO cells
T1 sequence (looked up): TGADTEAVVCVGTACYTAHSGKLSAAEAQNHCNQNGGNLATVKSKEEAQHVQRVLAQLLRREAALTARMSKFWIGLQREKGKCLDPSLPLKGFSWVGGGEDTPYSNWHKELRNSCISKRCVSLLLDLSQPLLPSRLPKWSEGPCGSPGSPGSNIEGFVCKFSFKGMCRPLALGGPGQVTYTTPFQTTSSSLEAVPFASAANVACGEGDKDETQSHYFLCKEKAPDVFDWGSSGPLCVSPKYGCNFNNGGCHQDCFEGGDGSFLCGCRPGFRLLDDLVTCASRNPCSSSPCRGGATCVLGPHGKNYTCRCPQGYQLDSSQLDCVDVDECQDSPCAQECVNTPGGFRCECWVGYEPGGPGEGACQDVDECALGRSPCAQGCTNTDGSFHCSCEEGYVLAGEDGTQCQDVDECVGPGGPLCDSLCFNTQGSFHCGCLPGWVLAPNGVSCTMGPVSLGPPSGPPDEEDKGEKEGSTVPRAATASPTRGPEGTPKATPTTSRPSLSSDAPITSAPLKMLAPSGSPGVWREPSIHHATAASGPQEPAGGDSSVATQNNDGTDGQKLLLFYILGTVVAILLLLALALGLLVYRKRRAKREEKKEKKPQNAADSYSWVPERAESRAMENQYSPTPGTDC
As to the kind of experiment: flow cytometry, CHO-hCD93 cells, APC-A. Background: Flow cytometry measures light scatter and fluorescence of single cells or particles in a stream.

Test [2] addresses T2, Mouse CD93 on cells (mouse CD93 expressing CHO cells; mouse CD93 expressing HEK cells) (mouse, UniProt O89103 23-644).
T2 construct: whole, on cells; also called mCD93 HEK; CD93-HEK cells
T2 sequence (looked up): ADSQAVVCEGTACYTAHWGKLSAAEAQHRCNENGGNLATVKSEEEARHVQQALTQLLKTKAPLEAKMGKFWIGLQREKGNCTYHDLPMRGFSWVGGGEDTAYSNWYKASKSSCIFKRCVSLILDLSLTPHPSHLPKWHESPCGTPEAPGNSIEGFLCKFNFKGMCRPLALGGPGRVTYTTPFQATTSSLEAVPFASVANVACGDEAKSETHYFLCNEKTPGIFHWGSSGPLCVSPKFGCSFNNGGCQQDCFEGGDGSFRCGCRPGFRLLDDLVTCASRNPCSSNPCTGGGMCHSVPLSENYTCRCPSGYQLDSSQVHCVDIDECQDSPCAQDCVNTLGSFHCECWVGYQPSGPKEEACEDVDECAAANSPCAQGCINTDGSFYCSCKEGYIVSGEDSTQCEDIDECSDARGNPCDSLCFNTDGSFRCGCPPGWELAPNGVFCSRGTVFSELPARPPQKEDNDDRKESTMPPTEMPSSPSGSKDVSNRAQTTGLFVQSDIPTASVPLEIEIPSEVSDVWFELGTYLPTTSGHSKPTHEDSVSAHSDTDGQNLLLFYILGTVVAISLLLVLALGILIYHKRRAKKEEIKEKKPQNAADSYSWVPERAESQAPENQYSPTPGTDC
As to the kind of experiment: summary table; method and form of mouse CD93 not given.

The target in test [3] is T1, Human CD93 on cells (human CD93 …). As to the kind of experiment: flow cytometry blocking assay, CHO-hCD93 cells, antibody 50 ug/ml then MMRN2 0.5 ug/ml, APC-A. Here is the method: After incubation, the cells were washed with FACS buffer and incubated with anti-His conjugated APC or streptavidin conjugated APC at a ratio of 1:500 for 30 minutes at 4° C. After washing with FACS buffer twice, the samples were analyzed and data acquired in NovoCyte Flow.

Test [4] deals with T3, Human CD93 recombinant protein (Sino Biological Inc, Catalog #12589-H08H) (human, UniProt Q9NPY3 22-580).
T3 construct: Biotinylated (EZ-LINK NHS-PEG4 biotin) in the BLI assays; also called hCD93; His-tagged human CD93
T3 sequence (looked up): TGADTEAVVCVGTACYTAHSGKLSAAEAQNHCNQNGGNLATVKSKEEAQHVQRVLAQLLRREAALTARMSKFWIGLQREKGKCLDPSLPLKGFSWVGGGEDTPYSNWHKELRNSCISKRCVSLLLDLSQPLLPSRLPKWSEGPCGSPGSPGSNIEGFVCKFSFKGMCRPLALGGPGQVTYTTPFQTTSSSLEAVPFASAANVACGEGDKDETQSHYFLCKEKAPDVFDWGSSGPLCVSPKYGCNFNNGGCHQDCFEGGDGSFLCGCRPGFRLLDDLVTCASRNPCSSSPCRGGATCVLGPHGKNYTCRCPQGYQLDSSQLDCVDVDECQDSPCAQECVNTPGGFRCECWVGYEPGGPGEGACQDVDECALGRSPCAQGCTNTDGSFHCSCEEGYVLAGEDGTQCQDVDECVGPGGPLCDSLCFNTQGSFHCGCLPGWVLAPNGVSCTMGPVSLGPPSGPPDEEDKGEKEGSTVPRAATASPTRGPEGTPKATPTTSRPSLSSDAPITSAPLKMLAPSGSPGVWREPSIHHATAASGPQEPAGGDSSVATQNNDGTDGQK
As to the kind of experiment: BLI (Octet QKe), biotinylated human CD93 on streptavidin biosensors; antibody stored 4 weeks at 40 C. Here is the method:
The binding affinity of anti-CD93 antibodies was determined with bio-layer interferometry using Octet QKe (Fortebio). […] Human CD93 recombinant protein (Sino Biological Inc, Catalog #12589-H08H) was biotinylated using EZ-LINK NHS-PEG4 biotin (Thermo Fisher Scientific). Streptavidin biosensors (Fortebio) were used to load biotinylated CD93 protein (300 seconds in 5 μg/ml). Baseline was stabilized for 60 seconds in 1×kinetics buffer (Fortebio) before anti-CD93 antibodies, at a serial dilution, were allowed to associate for 300 seconds with captured protein. Then the sensors were dissociated in 1× kinetics buffer for 600 seconds. […] (FIG. 41).
For orientation: BLI is a label-free optical method that tracks binding on a fibre tip over time.

The target in test [5] is T1, Human CD93 on cells (human CD93 …). The experiment in a line: flow cytometry titration, CHO-hCD93 cells; antibody stored 2 weeks at 40 C. How it is done:
Human CD93 expressing CHO cells were detached by incubation with TrypLE reagents (Thermo Fisher), which preserves the integrity of CD93 on the cell surface. Then the cells were incubated with serial diluted anti-CD93 antibodies for 30 minutes at 4° C. After washing by FACS buffer, the cells were incubated with Alexa Fluor 647 conjugated anti-human IgG (Jackson ImmunoResearch) for 30 minutes in 4° C. After washing by FACS buffer twice, the samples were acquired in NovoCyte Flow Cytometer and analyzed by NovoExpress software.

B1: 16E4 (hybridoma) (antibody, IgG2a, V domains shown)
VH: QVQLQQPGAELVKPGASVKLSCKASGYTFTSYWMHWVKQRPGQGLEWIGEIDPSASYTYYNQKFKGKATLTVDKSSSTAYMQLSSLTSEDSAVYYCARSVYYGNKYFDVWGAGTTVTVSS
VL: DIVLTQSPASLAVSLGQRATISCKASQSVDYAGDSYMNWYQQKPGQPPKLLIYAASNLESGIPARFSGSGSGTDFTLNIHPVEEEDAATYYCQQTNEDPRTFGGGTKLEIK
notes: also called 16E4 mAb; 16E4 mIgG2a
For the molecule B1, in test [1], the “M3 gate, % of cells” value was 98.7%. Further, the binding result in test [2] is “no binding”. Moreover, in test [3], the “M3 gate, % of cells positive for MMRN2 after the antibody” value worked out at 65.9%.

B2: h7F3 (humanized 7F3, VH3+VL3) (antibody, human IgG1, V domains shown)
VH: QVQLVQSGAEVKKPGASVKVSCKASGYTFTDYEMHWVRQAPGQGLEWMGGIDPETGDTAYNQNFKGRVTMTTDTSTSTAYMELRSLTSDDTAVYYCTNYGNLYYYAMDYWGQGTSVTVSS
VL: EIVLTQSPSSLSASVGDRVTITCRASSSVSSSYLHWYQQKPGKAPKLLIYSTSNLAFGVPSRFSGSGSGTSYTFTISSLQPEDIATYYCQQYSGYPLTFGSGTKLEIK
notes: also called humanized 7F3-hIgG1
As usually defined, the Kd is the constant that tells how readily two partners part at equilibrium. What is called koff is a measure of how fast the partners let go of each other. The term kon denotes the rate constant with which the complex forms. On to B2, for which, in test [4], the Kd stood at 0.487 nM, the koff is 0.000386 s⁻¹ and the kon is 793000 M⁻¹ s⁻¹.

B3: h16E4 (humanized 16E4, VH4+VL6) (antibody, V domains shown)
VH: QVQLVQSGAEVKKPGASVKVSCKASGYTFTSYWMHWVRQAPGQGLEWMGEIDPSASYTYYNQKFKGRVTMTRDKSSSTVYMELSSLTSEDSAVYYCARSVYYGNKYFDVWGAGTTVTVSS
VL: DIQMTQSPSTLSASVGDRVTITCKASQSVDYAGDSYMNWYQQKPGKAPKLLIYAASNLESGVPSRFSGSGSGTEFTLTISSLQPDDFATYYCQQTNEDPRTFGGGTKLEIK
notes: Detected with anti-human IgG, so a human Fc
Broadly, the EC50 is the concentration that produces a half-maximal response. Low readings indicate greater potency, high ones weaker potency. B3 returned an EC50 in test [5] of 0.274 nM. In other words, the sub-nanomolar range.

The values above are taken from patent publication US20230365705A1 (DYNAMICURE BIOTECHNOLOGY, published 2023).
